Assay results: patent US20210246189A1

Target: transgenic TCR specific for A*02:01/pp65495-503, on transduced PBMCs
Assay: cell-based or functional assay

Substance | Ag-specific CD8 T cell population after 5d culture with 0.25 ug pMHC [%] | Ag-specific CD8 T cell population after 5d culture with 0.5 ug pMHC [%]
un-functionalized A2/pp65495-503 pMHC (Tub-tagged Streptamer) (from UniProt P61769 21-119; P06725 495-503) (peptide-MHC) | 64.5 | 20 to 43.7
A1/pp65(363-373) pMHC functionalized with MMAF (irrelevant toxin armed Streptamer) (from UniProt P61769 21-119; P06725 363-373) (peptide-MHC) | 60.7 | –
